Measurements: article PMC4439124, “Hairy/Enhancer-of-Split MEGANE and Proneural MASH1 Factors Cooperate Synergistically in Midbrain GABAergic Neurogenesis” (PLoS ONE, 2015)

Biological target: T1, MGN (MEGANE), yeast two-hybrid fusion (mouse, UniProt Q7TS99 1-240)
T1 construct: The two Gal4 domains are alternatives: one fusion as bait (BD), another as prey (AD); also called Helt; BD-MGN; source: yeast two-hybrid fusion
T1 sequence (looked up): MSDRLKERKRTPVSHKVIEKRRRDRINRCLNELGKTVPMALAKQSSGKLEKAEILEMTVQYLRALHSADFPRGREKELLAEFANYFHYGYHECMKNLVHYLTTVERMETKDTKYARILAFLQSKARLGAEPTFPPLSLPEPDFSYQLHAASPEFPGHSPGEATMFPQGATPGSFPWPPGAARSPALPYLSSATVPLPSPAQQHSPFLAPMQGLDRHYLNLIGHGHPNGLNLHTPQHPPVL
Assay: two-hybrid; quantitative β-galactosidase assay on liquid cultures (X-gal; in parallel ONPG, absorbance at 420 nm), five independent transformants per pair, normalised against cell density and dilution
Details: partners not purified

fold β-galactosidase activity (strength of interaction) over the MASH1/MASH1 homodimer: 4 fold | fold β-galactosidase activity (strength of interaction) over the MGN/MGN homodimer: 4.4 fold
B1: MASH1, yeast two-hybrid fusion (natural protein, mouse, UniProt Q02067 1-231, looked up)
chain: MESSGKMESGAGQQPQPPQPFLPPAACFFATAAAAAAAAAAAAQSAQQQQPQAPPQQAPQLSPVADSQPSGGGHKSAAKQVKRQRSSSPELMRCKRRLNFSGFGYSLPQQQPAAVARRNERERNRVKLVNLGFATLREHVPNGAANKKMSKVETLRSAVEYIRALQQLLDEHDAVSAAFQAGVLSPTISPNYSNDLNSMAGSPVSSYSSDEGSYDPLSPEEQELLDFTNWF
notes: The two Gal4 domains are alternatives: one fusion as bait (BD), another as prey (AD); also called Ascl1; MASH1-AD; source: yeast two-hybrid fusion
